According to patent publication US20220025023A1 (AC IMMUNE, published 2022):
Where no end group is shown, it is not given here.

T1: TDP-3 peptide (human)
T1 construct: Irrelevant control peptide; conjugated to Luminex beads in the assay; also called TDP-43 aa 310-370; irrelevant target
T1 peptide: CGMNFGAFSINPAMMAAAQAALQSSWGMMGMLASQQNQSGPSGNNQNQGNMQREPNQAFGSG

T2: TDP-215 peptide (human)
T2 construct: same ELISA method as for the biotinylated 15-mers
T2 peptide: GDVMDVFI

T3: TDP-211 peptide (human)
T3 construct: 8-mer of human TDP-43; same ELISA method as for the biotinylated 15-mers
T3 peptide: FSQYGDVM

T4: TDP-212 peptide (human)
T4 construct: 8-mer of human TDP-43; same ELISA method as for the biotinylated 15-mers
T4 peptide: SQYGDVMD

T5: TDP-221 peptide (human)
T5 construct: 8-mer of human TDP-43; same ELISA method as for the biotinylated 15-mers
T5 peptide: FIPKPFRA

T6: TDP-223 peptide (human)
T6 construct: 8-mer of human TDP-43; same ELISA method as for the biotinylated 15-mers
T6 peptide: PKPFRAFA

T7: TDP-220 peptide (human)
T7 construct: 8-mer of human TDP-43; same ELISA method as for the biotinylated 15-mers
T7 peptide: VFIPKPFR

T8: TDP-219 peptide (human)
T8 construct: 8-mer of human TDP-43; same ELISA method as for the biotinylated 15-mers
T8 peptide: DVFIPKPF

T9: TDP-218 peptide (human)
T9 construct: 8-mer of human TDP-43; same ELISA method as for the biotinylated 15-mers
T9 peptide: MDVFIPKP

T10: TP-25 peptide (human, also: biotinylated, site not given here)
T10 construct: 15-mer of human TDP-43 from the library spanning aa 199-285; captured on streptavidin plates
T10 peptide: VMDVFIPKPFRAFAF

T11: TP-24 peptide (human, also: biotinylated, site not given here)
T11 construct: 15-mer of human TDP-43 from the library spanning aa 199-285; captured on streptavidin plates
T11 peptide: REFFSQYGDVMDVFI

T12: TDP-1 peptide (human)
T12 construct: Immunogen peptide; conjugated to Luminex beads in the assay; also called TDP-43 aa 212-272
T12 peptide: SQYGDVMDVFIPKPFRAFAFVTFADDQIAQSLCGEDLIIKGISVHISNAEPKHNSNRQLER

T13: TP-31 (also: biotinylated, site not given here)
T13 construct: also called TP-31 peptide
T13 peptide: ERSGRFGGNPGGFGN

T14: TP-28 (also: biotinylated, site not given here)
T14 construct: also called TP-28 peptide
T14 peptide: CGEDLIIKGISVHIS

T15: TP-30 (also: biotinylated, site not given here)
T15 construct: also called TP-30 peptide
T15 peptide: PKHNSNRQLERSGRF

T16: TP-23 (also: biotinylated, site not given here)
T16 construct: also called TP-23 peptide
T16 peptide: TEDMTEDELREFFSQ

T17: TP-26 (also: biotinylated, site not given here)
T17 construct: also called TP-26 peptide
T17 peptide: FRAFAFVTFADDQIA

T18: TP-29 (also: biotinylated, site not given here)
T18 construct: also called TP-29 peptide
T18 peptide: ISVHISNAEPKHNSN

T19: TP-27 (also: biotinylated, site not given here)
T19 construct: also called TP-27 peptide
T19 peptide: ADDQIAQSLCGEDLI


Experiments:
[1] = biological target: T1, TDP-3 peptide; assay: Luminex bead assay, TDP-3 peptide beads (irrelevant target)
[2] = biological target: T2, TDP-215 peptide; assay: indirect ELISA, 8-mer peptide library, OD 405 nm
Description: (§1) Serum-free supernatants were harvested from stable hybridomas. The supernatants containing antibodies of interest were then screened by an indirect ELISA assay to determine epitopes. Epitopes were mapped using a library of TDP-43 15-mer peptides. Briefly, 96-well streptavidin-coated 96-well ELISA plates were incubated with 5 μg/mL of biotinylated 15-mer peptides spanning the amino acids (aa) 199-285 of human TDP-43 with 9 aa offset and 6 aa overlap. Plates were washed thoroughly with 0.05% Tween-20/PBS and then blocked with 1% bovine serum albumin (BSA) in 0.05% Tween-20/PBS for 1 hour at 37° C. The antibody contained in the hybridoma supernatant was then added at the indicated dilutions, and incubated for 2 hours at 37° C. after which the plates were washed as described previously. An AP-conjugated anti-mouse IgG secondary antibody (Jackson ImmunoResearch Laboratories, United Kingdom) was added at 1/1000 dilution in 0.05% Tween-20/PBS for 1 hour at 37° C. After the final wash, plates were incubated with pNPP (Sigma-Aldrich, Switzerland) an AP substrate solution, and read at 405 nm using an ELISA plate reader (Tecan).
(§2) Furthermore, antibodies were tested using an indirect ELISA on a peptide library of 8-mer peptides with 7 aa overlap covering the sequence of human TDP-43 from aa 210 to aa 231, using the same ELISA method as describe previously in this section.

[3] = biological target: T3, TDP-211 peptide; assay: indirect ELISA, 8-mer peptide library
Description: as §1, §2

[4] = biological target: T4, TDP-212 peptide; assay: indirect ELISA, 8-mer peptide library
Description: as §1, §2

[5] = biological target: T5, TDP-221 peptide; assay: indirect ELISA, 8-mer peptide library
Description: as §1, §2

[6] = biological target: T6, TDP-223 peptide; assay: indirect ELISA, 8-mer peptide library
Description: as §1, §2

[7] = biological target: T7, TDP-220 peptide; assay: indirect ELISA, 8-mer peptide library
Description: as §1, §2

[8] = biological target: T8, TDP-219 peptide; assay: indirect ELISA, 8-mer peptide library
Description: as §1, §2

[9] = biological target: T9, TDP-218 peptide; assay: indirect ELISA, 8-mer peptide library
Description: as §1, §2

[10] = biological target: T10, TP-25 peptide; assay: indirect ELISA, biotinylated 15-mer peptide on streptavidin plate, hybridoma supernatant
Description: as §1

[11] = biological target: T11, TP-24 peptide; assay: as above
Description: as §1

[12] = biological target: T12, TDP-1 peptide; assay: Luminex bead assay, antibody serial dilution, TDP-1 peptide beads
[13] = biological target: T13, TP-31; assay: indirect ELISA, biotinylated 15-mer on streptavidin plate, hybridoma supernatant
Description: as §1

[14] = biological target: T14, TP-28; assay: as above
Description: as §1

[15] = biological target: T15, TP-30; assay: as above
Description: as §1

[16] = biological target: T16, TP-23; assay: as above
Description: as §1

[17] = biological target: T17, TP-26; assay: as above
Description: as §1

[18] = biological target: T18, TP-29; assay: as above
Description: as §1

[19] = biological target: T19, TP-27; assay: as above
Description: as §1

[20] = biological target: T20, recombinant human full-length TDP-43 (human, UniProt Q13148 1-414); assay: SPR avidity (Biacore T200), TDP-43 monomer immobilised, antibody as analyte, 1:1 model
T20 construct: Recombinant full-length protein; also called FL TDP-43; recFL TDP-43
Description: Avidity measurements were performed on an SPR instrument (Biacore T200, GE Healthcare Life Sciences) using CM5 Series S sensor chips. Recombinant human FL TDP-43 monomers or aggregated recombinant human FL TDP-43 was immobilized on a CM5 chip using amine coupling, injecting at a flow rate of 5 μl/min for 420 seconds. Conditions were optimized so that less than 200 RU protein was immobilized. Binding of the antibodies and the control antibody (2E2-D3) were obtained by injecting at: 1.37, 4.11, 12.33, 37, 111, and 333 nM in 1×PBS P+ at a flow rate of 50 μl/min for 90 s contact time and 600 s dissociation phase, with three regeneration cycles of the ligand surface by 10 mM Glycine-HCl (pH 1.7). Kinetics were analyzed using a 1:1 fitting model (see FIG. 8).

T20 sequence (Q13148 whole entry): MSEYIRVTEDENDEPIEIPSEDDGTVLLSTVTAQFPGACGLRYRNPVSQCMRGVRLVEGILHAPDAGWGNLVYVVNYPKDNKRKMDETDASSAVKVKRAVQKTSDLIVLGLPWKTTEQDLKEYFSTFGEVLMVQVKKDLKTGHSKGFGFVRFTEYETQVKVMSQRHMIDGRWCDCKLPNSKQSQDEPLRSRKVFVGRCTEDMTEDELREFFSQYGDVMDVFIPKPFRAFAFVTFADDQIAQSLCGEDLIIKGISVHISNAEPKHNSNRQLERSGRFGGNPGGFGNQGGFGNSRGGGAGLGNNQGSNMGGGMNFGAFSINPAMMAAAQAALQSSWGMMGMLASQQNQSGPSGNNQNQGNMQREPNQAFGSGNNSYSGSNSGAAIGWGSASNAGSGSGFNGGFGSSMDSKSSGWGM

Binder | binding result [1] | binding result [2] | binding result [3] | binding result [4] | binding result [5] | binding result [6] | binding result [7] | binding result [8] | binding result [9] | OD [10] | OD [11] | EC50 [12] [nM] | binding result [13] | binding result [14] | binding result [15] | binding result [16] | binding result [17] | binding result [18] | binding result [19] | Kd [20] [nM]
ACI-7062-412A7-Ab1 (antibody, IgG2b, V domains shown, also called 412A7B7; clone 9) VH: DVQLVESGGGLVQPGGSRRLSCAASGFTFSSFGMHWVRQAPEKGLEWVAYIRSGSDIIYYADSVKGRFTISRDNPENTLFLQMTSLRSEDTAMYYCARSGTTVPFDYWGQGTSLTVSS VL: DIVMTQSPSSLAMSVGQKVTMSCKSSQSLLNSGNQKNYLAWYQQKPGQSPELLLYFASTRASGVPDRFIGSGSGTDFTLTISSVQAEDLADYFCQQHYSIPLTFGAGTKLELKR | no binding | binds | no binding | no binding | no binding | no binding | no binding | no binding | no binding | 1.4 O.D. (405 nm) | 4 O.D. (405 nm) | < 0.01 | no binding | no binding | no binding | no binding | no binding | no binding | no binding | 1
ACI-7062-406E3-Ab1 (antibody, IgG2a, V domains shown, also called 406E3D5; clone 5) VH: QVTLKESGPAILQPSQTLSLTCSFSGFSLTTYGIGVGWIRQPSGKGLEWLAHIWWNDNKYYNTALKSRLTVSKDTSNNQVFLKIASVDTADTATYYCARVYGNLYYFAYWGQGTTLTVSS VL: DVLMTQTPLSLPVSLGDRASISCRSSQSIVHRSGNTYLEWYLQKPGQSPKLLIYKVSNRFSGVPDRFSGSGSGTDFTLKISRVEAEDLGVYYCFQGSHVPTFGAGTKLELKR | no binding | binds | no binding | no binding | no binding | no binding | no binding | no binding | no binding | 1 O.D. (405 nm) | 3 O.D. (405 nm) | < 0.01 | no binding | no binding | no binding | no binding | no binding | no binding | no binding | 0.8
ACI-7062-406E3-Ab2 (antibody, IgG2a, V domains shown, also called 406E3G10; clone 6) VH: QVTLKESGPAILQPSQTLSLTCSFSGFSLTTYGIGVGWIRQPSGKGLEWLAHIWWNDNKYYNTALKSRLTVSKDTSNNQVFLKIASVDTADTATYYCARVYGNLYYFAYWGQGTTLTVSS VL: DVLMTQTPLSLPVSLGDRASISCRSSQSIVHRSGNTYLEWYLQKPGQSPKLLIYKVSNRFSGVPDRFSGSGSGTDFTLKISRVEAEDLGVYYCFQGSHVPTFGAGTKLELKR | no binding | binds | no binding | no binding | no binding | no binding | no binding | no binding | no binding | 0.9 O.D. (405 nm) | 3.4 O.D. (405 nm) | < 0.01 | no binding | no binding | no binding | no binding | no binding | no binding | no binding | 0.3

The next lines start with the values.

binding result [1] | binding result [2] | binding result [3] | binding result [4] | binding result [5] | binding result [6] | binding result [7] | binding result [8] | binding result [9] | OD [10] | OD [11] | EC50 [12] [nM] | binding result [13] | binding result [14] | binding result [15] | binding result [16] | binding result [17] | binding result [18] | binding result [19] | Kd [20] [nM] | Binder
no binding | binds | no binding | no binding | no binding | no binding | no binding | no binding | no binding | 0.8 O.D. (405 nm) | 3.8 O.D. (405 nm) | < 0.01 | no binding | no binding | no binding | no binding | no binding | no binding | no binding | 6 | ACI-7062-410H3-Ab1 (antibody, IgG1, V domains shown, also called 410H3B9; clone 7) VH: DVQLVESGGGLVQPGGSRRLSCAASGFTFSSFGMHWVRQAPEKGLEWVAYIRSGSDIIYYADSVKGRFTISRDNPENTLFLQMTSLRSEDTAMYYCARSGTTVPFDYWGQGTSLTVSS VL: DIVMTQSPSSLAMSVGQKVTMSCKSSQSLLNSGNQKNYLAWYQQKPGQSPELLLYFASTRASGVPDRFIGSGSGTDFTLTISSVQAEDLADYFCQQHYSIPLTFGAGTKLELKR
no binding | binds | no binding | no binding | no binding | no binding | no binding | no binding | no binding | 0.9 O.D. (405 nm) | 2.9 O.D. (405 nm) | < 0.01 | no binding | no binding | no binding | no binding | no binding | no binding | no binding | 2.4 | ACI-7062-416A11-Ab1 (antibody, IgG2a, V domains shown, also called 416A11B3; clone 18) VH: QVTLKESGPGILQSSQTLSLTCSFSGFSLSTYGIGVGWIRQPSGKGLEWLAHIWWNDNKYYNTALKSRLTISKDTSNNQVFLKIASVDTADAATYYCARVYGNLYYFGYWGQGTTLTVSS VL: DVLMTQTPLSLPVSLGDRASISCRSSQSIVHSSGNTYLEWYLQKPGQSPKLLIYKVSNRFSGVPDRFSGSGSGTDFTLKISRVEAEDLGVYYCFQGSRVPTFGAGTKLELKR
